Biological target: T1, hKLRG1 (human KLRG1), plate-coated, Example 21 (human, UniProt Q96E93 60-195, limits assumed)
T1 construct: also called plate-coated KLRG1
T1 sequence (looked up): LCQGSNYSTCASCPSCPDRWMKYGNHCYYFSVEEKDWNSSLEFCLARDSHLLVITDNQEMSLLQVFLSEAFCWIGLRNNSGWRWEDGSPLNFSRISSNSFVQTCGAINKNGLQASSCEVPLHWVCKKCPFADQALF
Assay: ELISA, soluble hE-cadherin on plate-coated hKLRG1
Excerpt: An ELISA based KLRG1/E-cadherin competition assay was developed to measure KLRG1/E-cadherin binding as well as neutralization of KLRG1/E-cadherin binding.
FIG. 23 presents the results of soluble hE-cadherin binding to plate-coated hKLRG1.

B1: soluble recombinant human E-cadherin (ligand)
chain: DWVIPPISCPENEKGPFPKNLVQIKSNKDKEGKVFYSITGQGADTPPVGVFIIERETGWLKVTEPLDRERIATYTLFSHAVSSNGNAVEDPMEILITVTDQNDNKPEFTQEVFKGSVMEGALPGTSVMEVTATDADDDVNTYNAAIAYTILSQDPELPDKNMFTINRNTGVISVVTTGLDRESFPTYTLVVQAADLQGEGLSTTATAVITVTDTNDNPPIFNPTTYKGQVPENEANVVITTLKVTDADAPNTPAWEAVYTILNDDGGQFVVTTNPVNNDGILKTAKGLDFEAKQQYILHVAVTNVVPFEVSLTTSTATVTVDVLDVNEAPIFVPPEKRVEVSEDFGVGQEITSYTAQEPDTFMEQKITYRIWRDTANWLEINPDTGAISTRAELDREDFEHVKNSTYTALIIATDNGSPVATGTGTLLLILSDVNDNAPIPEPRTIFFCERNPKPQVINIIDADLPPNTSPFTAELTHGASANWTIQYNDPTQESIILKPKMALEVGDYKINLKLMDNQNKDQVTTLEVSVCDCEGAAGVCRKAQPVEAGLQIPA
notes: also called hE-cadherin; soluble E-cadherin
EC50: 25 nM

From patent US20190085083A1 (BRIGHAM AND WOMEN S HOSPITAL, published 2019)
